Laboratory results reported in paper PMC2275666 (The EMBO Journal, 2008).
“And” between values parts separate entries of the source, which are not always exact repeats. Equal entries are not always repeated. Where two headings read alike, the source gives them in different places.

T1: hTFIIH p62 PH-D (pleckstrin homology domain of the p62 subunit of human TFIIH) (human, UniProt P32780 1-108)
T1 sequence: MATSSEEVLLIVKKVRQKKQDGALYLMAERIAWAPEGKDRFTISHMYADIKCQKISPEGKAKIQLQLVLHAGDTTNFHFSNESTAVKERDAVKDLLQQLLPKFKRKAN

B1: 6H–hTFIIEα wild type (full-length hTFIIEα) (natural protein)
chain: MADPDVLTEVPAALKRLAKYVIRGFYGIEHALALDILIRNSCVKEEDMLELLKFDRKQLRSVLNNLKGDKFIKCRMRVETAADGKTTRHNYYFINYRTLVNVVKYKLDHMRRRIETDERDSTNRASFKCPVCSSTFTDLEANQLFDPMTGTFRCTFCHTEVEEDESAMPKKDARTLLARFNEQIEPIYALLRETEDVNLAYEILEPEPTEIPALKQSKDHAATTAGAASLAGGHHREAWATKGPSYEDLYTQNVVINMDDQEDLHRASLEGKSAKERPIWLRESTVQGAYGSEDMKEGGIDMDAFQEREEGHAGPDDNEEVMRALLIHEKKTSSAMAGSVGAAAPVTAANGSDSESETSESDDDSPPRPAAVAVHKREEDEEEDDEFEEVADDPIVMVAGRPFSYSEVSQRPELVAQMTPEEKEAYIAMGQRMFEDLFE

Columns and labels:
[1] = molecular target: T1, hTFIIH p62 PH-D (pleckstrin homology …); experiment: NMR titration
[2] = molecular target: B1; experiment: pull-down
[3] = molecular target: full-length GST–p62(1−548) (human, UniProt P32780 1-548); experiment: pull-down
[4] = molecular target: B1; experiment: pull-down; remark: listed apart in the source

Binder | Kd [1] | binding result [4] | also measured
hTFIIEα AC-D (C-terminal acidic domain of the human TFIIEα subunit, residues 378–439) (domain or fragment) EEDEEEDDEFEEVADDPIVMVAGRPFSYSEVSQRPELVAQMTPEEKEAYIAMGQRMFEDLFE | 0.376 µM and 0.237 µM | – | –
FLAG-tagged hTFIIH p62 PH-D, wild type (domain or fragment) MATSSEEVLLIVKKVRQKKQDGALYLMAERIAWAPEGKDRFTISHMYADIKCQKISPEGKAKIQLQLVLHAGDTTNFHFSNESTAVKERDAVKDLLQQLLPKFKRKAN | – | – | binding result [2]: binds
B1 | – | – | binding result [3]: binds
GST–p62(1−333) (domain or fragment) not shown | – | binds | –
GST–p62(1−108) (GST-tagged p62 PH-D) (domain or fragment) MATSSEEVLLIVKKVRQKKQDGALYLMAERIAWAPEGKDRFTISHMYADIKCQKISPEGKAKIQLQLVLHAGDTTNFHFSNESTAVKERDAVKDLLQQLLPKFKRKAN | – | binds | –
GST–p62(1−238) (domain or fragment) not shown | – | binds | –
EEEDDEFEEVADDP [hTFIIEα AC-D(381−394) peptide (N-terminal tail only)] | 2.12 ± 0.192 µM | – | –
hTFIIEα(351−439) (longer construct with STDE and acidic regions, NMR titration) (domain or fragment) GSDSESETSESDDDSPPRPAAVAVHKREEDEEEDDEFEEVADDPIVMVAGRPFSYSEVSQRPELVAQMTPEEKEAYIAMGQRMFEDLFE | 0.4 ± 0.043 µM | – | –
